Source: US20180355043A1

Tests used:
Test in all cases: MSD ECL; antigen coated; protocol of Example 3
[1] = target: DR4G145 (HLA DQB2:01, peptide CLIP) (human)
[2] = target: DR4G96: Human HLA-DRA1*01:02/DRB1*01:01 ECD with CLIP peptide (human)
[3] = target: DR4G102: Human HLA-DRA1*01:02/DRB1*01:01 ECD with collagen II peptide CII_257-273 (human)
[4] = target: DR4G142: Human HLA-DRA1*01:02/DRB1*03:01 ECD_VimentineL70A (human)
[5] = target: DR4G107 (HLA DPB4:01, peptide CLIP) (human)
[6] = target: DR4G97: Human HLA-DRA1*01:02/DRB1*15:01 ECD with collagen II peptide CII_1236-1249 (human)
[7] = target: DR4G92: Human HLA-DRA1*01:02/DRB1*04:01 ECD with collagen II peptide CII_257-273 (human)
[8] = target: DR4G143: Human HLA-DRA1*01:02/DRB1*04:01 ECD_VimentineL70A (human)
[9] = target: DR4G115 (HLA DPB4:01, peptide LCAP) (human)
DR4G115 (HLA DPB4:01, peptide LCAP) (human), sequence (P20036 29-222, chain 1 of 2): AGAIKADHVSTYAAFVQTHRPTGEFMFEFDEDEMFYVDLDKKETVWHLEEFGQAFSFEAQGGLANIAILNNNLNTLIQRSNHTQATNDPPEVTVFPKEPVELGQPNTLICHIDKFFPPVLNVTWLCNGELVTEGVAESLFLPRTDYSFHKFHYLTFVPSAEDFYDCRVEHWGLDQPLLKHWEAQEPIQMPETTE
DR4G115 (HLA DPB4:01, peptide LCAP) (human), sequence (P04440 30-225, chain 2 of 2, further chain): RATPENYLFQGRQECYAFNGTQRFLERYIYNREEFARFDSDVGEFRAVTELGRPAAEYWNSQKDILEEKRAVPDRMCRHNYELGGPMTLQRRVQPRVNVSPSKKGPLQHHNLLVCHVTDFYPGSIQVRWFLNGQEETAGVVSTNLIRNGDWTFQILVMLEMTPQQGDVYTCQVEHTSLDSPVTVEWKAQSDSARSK

[10] = target: DR4G98: Human HLA-DRA1*01:02/DRB1*04:02 ECD with collagen II peptide CII_1236-1249 (human)
[11] = target: DR4G101: Human HLA-DRA1*01:02/DRB1*04:02 ECD with collagen II peptide CII_257-273 (human)
[12] = target: DR4G110: Human HLA-DRA1*01:02/DRB1*04:01 ECD with aggrecan peptide N1 (human)
[13] = target: DR4G112: Human HLA-DQA1*01:02/DQB1*06:02 ECD with PLP peptide PLP_178-186 (human)
[14] = target: DR4G99: Human HLA-DRA1*01:02/DRB1*01:01 ECD with collagen peptide CII_1236-1249 (human)
[15] = target: DR4G117: Human HLA-DRA1*01:02/DRB1*03:01 ECD with Collagen II peptide CII_1236-1249 (human)
[16] = target: DR4G146 (HLA DQB2:01, peptide CLIP) (human)
[17] = target: DR4G86: Human HLA-DRA1*01:02/DRB1*04:01 ECD with CLIP peptide (human)

**Q.** Which results are given for Isotype control (antibody)?
**A.** ECL signal [1]: 2780 ECL; ECL signal [2]: 781 ECL; ECL signal [3]: 392 ECL; ECL signal [4]: 2220 ECL; ECL signal [5]: 153 ECL; ECL signal [6]: 393 ECL; ECL signal [7]: 486 ECL; ECL signal [8]: 410 ECL; ECL signal [9]: 91 ECL; ECL signal [10]: 613 ECL; ECL signal [11]: 1250 ECL; ECL signal [12]: 1030 ECL; ECL signal [13]: 250 ECL; ECL signal [14]: 490 ECL; ECL signal [15]: 603 ECL; ECL signal [16]: 1470 ECL; ECL signal [17]: 335 ECL
